Target: Anti-CRP antibodies (polyclonal)
Assay: SPR (Spreeta chip), anti-CRP antibodies injected over OM layer with Z-domain on gold

Substance: Z-domain of protein A autodisplayed on the E. coli outer membrane as a fusion protein of AIDA-I (from UniProt P38507 212-269; Q03155 840-1286)
- SPR signal: 1.1 A.U
